# Laboratory results from the nanobody polyreactivity screen of Harvey et al. (2022).
# Assay: yeast display, Sf9 membrane polyspecificity reagent, FACS + sequencing; frameworks hold sequencing errors
# Method in brief: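 After 36–48 hours of galactose induction, yeast (Saccharomyces cerevisiae BJ5465) displaying a synthetic nanobody library were stained at 4 °C for 1 hour with 10% biotinylated, detergent-solubilized Sf9 membrane reagent. Streptavidin microbeads enriched the stained cells before FACS sorting into low and high (top ~1%) gates on anti-HA and streptavidin fluorescence. Each clone's polyreactivity label reflects its gate of origin.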
row,Sequence,polyreactivity (PSR sort gate)
1,QVQLVESGGGLVQAGGSLRLSCAASGRIFPENAMGWYRQAPGKERELVAAINNNDGDTYYADSVKGRFTISRDNAKNTVYLQMNSLKPEDTAVYYCAADEAYWLSYVWGIGYDYWGQGTQVTVSS,low polyreactivity
2,QVQLVESGGGLVQAGGSLRLSCAASGRIFPEYAMGWYRQAPGKERELVAAITSSGRTYYADSVKGRFTISRDNAKNTVYLQMNSLKPEDTAVYYCAASFRRYYRWDYGFWGQGTQVTVSS,high polyreactivity
3,QVQLVESGGGLVQAGGSLRLSCAASGRIFPGKAMGWYRQAPGKEREFVASINWSRGSTFYADSVKGRFTISRDNAKNTVYLQMNRLIPEDTAVYYCSARTFGYYRSRSYNYWGQGTQVTVSS,high polyreactivity
4,QVQLVESGGGLVQAGGSLRLSCAASGRIFPGYAMGWYRQAPGKERELVASISSGGRTYYADSVKGRFTISRDNAKNTVYLQMNSLIPEDTAVYYCNSRHSSYSFRYDYWGQGTQVTVSS,low polyreactivity
5,QVQLVESGGGLVQAGGSLRLSCAASGRIFPGYTMGWYRQAPGKERELVAGISRSGGRTYYADSVKGRFTISRDNAKNTVYLQMNSLKPEDTAVYYCADDGYPGRRYTGMDYWGQGTQVTVSS,high polyreactivity
6,QVQLVESGGGLVQAGGSLRLSCAASGRIFPHYSMGWYRQAPGKERELVAANSWSGSSTYYADSVKGRFTISRDNAMNTVYLQMNSLKPEDTAVYYCNAVRRGIGYDYGYWGQGTQVTVSS,high polyreactivity
7,QVQLVESGGGLVQAGGSLRLSCAASGRIFPKYAMGWYSQAPGKERELVAGITKRVGSTYYADSVKGRFTISRDNAKNTVYLQMNSLKPDDTAVYYCAADYRYLIDYLDPEKEGMDYWGQGTQVTVSS,low polyreactivity
8,QVQLVESGGGLVQAGGSLRLSCAASGRIFPLYAMGWYRKAPGKERELVAAISYSGGSTYYADSVKGRFTISRDNAKNTVYLQMISLKPEDTSVYYCAAQTARVSYRMGYWGQGTQVTVSS,high polyreactivity
9,QVQLVESGGGLVQAGGSLRLSCAASGRIFPLYAMGWYRQAPGKERELVAAITWRAGITYYADSVKGRFTISRDNAKNTVYLQMNSLKPEDTAVYYCAARFVRGRGFAYGYWGQGTQVTVSS,high polyreactivity
10,QVQLVESGGGLVQAGGSLRLSCAASGRIFPLYAMGWYRQAPGKERELVARITYSGGSTYYADSVKGRFTISRDNAKNTVYLQMNSLKPEDTAVYYCAKDTYGRSTRNGYWGQGTQVTVSS,low polyreactivity
11,QVQLVESGGGLVQAGGSLRLSCAASGRIFPPYDMGWYRQAPGKETELVAAISYRGGSTYYADSVKGRFTISRDNAKNTVYLQMNSLKPEVTAVYYCNVGSRGGWDASDYDYWGQCTQVTVSS,high polyreactivity
12,QVQLVESGGGLVQAGGSLRLSCAASGRIFPRNAMGWYRQAPGKERELVAAISSGGGSTYYADSVKGRFTISRDNAKNTVYLQMNSLKPEDTAVYYCAKRAGWAGWYYRNDYWGQGTQVTVSS,high polyreactivity
13,QVQLVESGGGLVQAGGSLRLSCAASGRIFPRNAMGWYRQAPGKERELVASITSGGSTNYADSVKGRFTNSRDNAKNTVYLQMNSLKPEDTAVYSCAALYRQVTSPYRYYYWGQGTQVTVSS,high polyreactivity
14,QVQLVESGGGLVQAGGSLRLSCAASGRIFPRNTMGWYRQAPGKERELVAAISQSGGRTYYADSVKGRFTISRDYAKNTVYLQMNSLKPEDTAVYYCAAREYRYDMYYWGQGTQVTVSS,high polyreactivity
15,QVQLVESGGGLVQAGGSLRLSCAASGRIFPRYAMGWYRQAPGKERELVARITRRGGITYYADSVKGRFTISRDNAKNSVYLQMNSLKPEDTAVYYCNVDYYRGGDFSYGYDYWGQGTQVTVSS,high polyreactivity
16,QVQLVESGGGLVQAGGSLRLSCAASGRIFPRYAMGWYRQAPGKERELVARITRRGGITYYADSVKGRFTISRDNAKNTVYLQRNSLIPEDTAVYYCNVDYYSGGEFSYGYDYWGQGTQVTVSS,high polyreactivity
17,QVQLVESGGGLVQAGGSLRLSCAASGRIFPRYAMGWYRQAPGKERELVASISGTGSRTYYADSVKGRFTISRDNAKNTVYLQMNSLKPEDTAVYYCAAYSFRKLDYYWGQGTQVTVSS,high polyreactivity
18,QVQLVESGGGLVQAGGSLRLSCAASGRIFPTYTMGWYRQAPGKERELVAAIRRGGGRTYYADSVKGRFTISRDNAKNTVYLQMNSLKPEDTAVYYCAAPFYRQSLIEYDYWGQGTQVTVSS,high polyreactivity
19,QVQLVESGGGLVQAGGSLRLSCAASGRIFPTYTMGWYRQAPGKERELVAAIRRGGGRTYYADSVKGRFTISRDNAKNTVYLQMNSLKPEDTAVYYCNKDVYGYSRTGPRGYDYWGQGTQVTVSS,high polyreactivity
20,QVQLVESGGGLVQAGGSLRLSCAASGRIFPTYTMGWYRQAPGKERELVAHINRGGGSTYYADSVKGRFTISRDNAKYTVYLQMNSLKPEDTAVYYCAVDTYAYRGVSYWSERTYYYWGQGTQVTVSS,low polyreactivity
21,QVQLVESGGGLVQAGGSLRLSCAASGRIFPVNAMGWYRQAPGKERELVARISWRGGTYYADSVKGRFTISRDNAKNTVYLQMNSLKPEDTAVYYCAATLPSTSYWYHYGYWGQGTQVTVSS,high polyreactivity
22,QVQLVESGGGLVQAGGSLRLSCAASGRIFPVYAMGWYRQAPGKERELVATISYSGSSTYYADSVKGRFTISRDNAKNTVYLQMNSLKPEDTAVYYCNADAFGPPGVQYYYWGQGTQVTVSS,low polyreactivity

row,Sequence,polyreactivity (PSR sort gate)
1,QVQLVESGGGLVQAGGSLRLSCAASGRIFPVYVMGSYREAPGKEREFVASISWRGGSTFYADSVKGRFTISRDNAKNTVYLQMNSLKPEDTAVYYCAADYWSSDSSRGTMYYWGQGTQVTVSS,low polyreactivity
2,QVQLVESGGGLVQAGGSLRLSCAASGRIFPWNAMGWYRQAPGKERELVAAISFSAGRTYYADSVKGRFTISRDNAKTTVYLQMTSLKPEDTAVYFCTKASYWGSGFDYWGQGTQVTVSS,low polyreactivity
3,QVQLVESGGGLVQAGGSLRLSCAASGRIFPWNDMGWYRQAPGKERELVAAITYRGGRTYYADSVKGRFTISRDNAKNTVYLQMNSLKPEDTAVYYCAKTRYFSVGPHWDYYYWGQGTQVTVSS,high polyreactivity
4,QVQLVESGGGLVQAGGSLRLSCAASGRIFPWYAMGWYRQAPGRVREFLAVISRSGGSTYYADSVKGRFTISRDNAKNTVYLQMNSLKPEDTAVYYCAADGKFEYDYWGQGTQVTVSS,low polyreactivity
5,QVQLVESGGGLVQAGGSLRLSCAASGRIFPYCAMGWYRQAPGKEREFVAAITSSGGSTYYADSVKGRFTISRDNAKNTVYLQMNSLKREDTAVYFCFAVRHYALYAGRPYDYWGQGTEVTVSS,low polyreactivity
6,QVQLVESGGGLVQAGGSLRLSCAASGRIFPYNAMGWSRQAPGKERELVASITSGGGSTYYADSVKGRFTISRDNAKNTVYLQMKSLKPEDTAVYYCSTRGYAWSSDKFGYWGQGTQVTVSS,high polyreactivity
7,QVQLVESGGGLVQAGGSLRLSCAASGRIFPYNAMGWYRHAPGKERELVAAITWSGGRTYYADSVKGRFTISRDNAKNTVYLQMNSLKPEDTAVYYCAASYRGRTNDYWGQGTQVTVSS,high polyreactivity
8,QVQLVESGGGLVQAGGSLRLSCAASGRIFPYNAMGWYRQAPGKERELVAAISGRGGSTYYADSVKGRFTISRDNAKNTVYLQMNSLKPEDTAVYYCAKRYVYPGAKHRFRGYDYWGQGTQVTVSS,high polyreactivity
9,QVQLVESGGGLVQAGGSLRLSCAASGRIFPYYAMGWYRQAPGKERELVAAISLSGGSTYYADSVKGRFTISRDNAKNTVYLQMNSLKPEDTAVYYCNAVASTYGYYWYPGLGYDYWGQGTQVTVSS,low polyreactivity
10,QVQLVESGGGLVQAGGSLRLSCAASGRIFPYYAMGWYRQAPGKERELVAAISQSGGRTYYADSVKGRFTISRDNAKNTVYLQMNSLKPEDTAVYYCIAYTYSSGYDYWGQGTQVTVSS,high polyreactivity
11,QVQLVESGGGLVQAGGSLRLSCAASGRIFPYYAMGWYRQAPGKERELVAAISRSGGRTYYADSVKGRFTISRDNAKNTVYLQMNSLKPEDTAVYYCATPSKALPPHCRAILDYWGQGTQVTVSS,high polyreactivity
12,QVQLVESGGGLVQAGGSLRLSCAASGRIFPYYAMGWYRQAPGKERELVATISTAGSTNYADSVKGRFTISRDNAKNTVYLQMNSLKPEDTAVYYCATRNTWYHRGYDYWGQGTQVTVSS,low polyreactivity
13,QVQLVESGGGLVQAGGSLRLSCAASGRIFPYYDMGWYRQAPGKERELVAGITTSGGTTYADSVKGRFTISRDNAKNTVYLQMNSLKTEDTAVYYCNKLRLRLSRWTYDYWGHGTQVTVSS,low polyreactivity
14,QVQLVESGGGLVQAGGSLRLSCAASGRIFQFYAMGWYRQAPGKERELVAAITTGGSTKYADSVKGRFTISRDNAKNTVYLQMNSLKPEDTAVYYCAARAHYYVYRPGIRRYDYWGQGTQVTVSS,high polyreactivity
15,QVQLVESGGGLVQAGGSLRLSCAASGRIFQFYTMGWYRQAPGKERELVASISSAGSTNYADSVKGRFTISRDNAKNTVYLQMNSLKPEDTAVYYCRYTYYWMGYWGQGTQVTVSS,high polyreactivity
16,QVQLVESGGGLVQAGGSLRLSCAASGRIFQGYAMGWYRQAPGKERELVASIRTGGTTNYADSVKGRFTISRDNAKNTVYLQMNRLKPEDTAVYYCNRGYYSYYGGYYYWGQGTQVTVSS,high polyreactivity
17,QVQLVESGGGLVQAGGSLRLSCAASGRIFQGYVMGWYRQAPGKERELVAAITTGGSTYYADSVKGRFTISRDNAKNTVYLQMNSLKPEDTAVYYCNAVVYVSGYNPYIFGYWGQGTQVTVSS,low polyreactivity
18,QVQLVESGGGLVQAGGSLRLSCAASGRIFQKYAMGWYRQAPGKERELVAVITGRGGSTYYADSVKGRFTISRDNAKNTVFLLMNSLKKEDTAVYYCASVPGYWGQGTQVTVSS,high polyreactivity
19,QVQLVESGGGLVQAGGSLRLSCAASGRIFQLYAMGWYRLAPGKERELVAVISSGDRTYYADSVKGRFTISRDNAKNTVYLQMNSLKPEDTAVYYCAALGWHSGGSRWHGEYDYWGQGTQVTVSS,low polyreactivity
20,QVQLVESGGGLVQAGGSLRLSCAASGRIFQLYAMGWYRQAPGKERELVAANAWSGGSTYYADSVKGRFTISRDNAKNSVYLQMNSLKPEDTAVYDCAVEGYHGSRRYYYWGQGTQVTVSS,high polyreactivity
21,QVQLVESGGGLVQAGGSLRLSCAASGRIFQQNAMGWYRQAPGKERELVAAISSRGGSTYYADSVKGRFTISRDNAKNTVYLQMNSLKPEDTAVYYCARQYQSYRYRGYDYWGQGTQVTVSS,low polyreactivity
